# From publication PMC10344914, “Discovery and mechanism-guided engineering of BHET hydrolases for improved PET recycling and upcycling” (Nature Communications, 2023)
# Key:
# purified protein [1] = substrate: O=C(OCCO)c1ccc(C(=O)OCCO)cc1; assay: purified protein; assay type: biochemical, Bacillus subtilis; conditions: 50 mM potassium phosphate (Na2HPO4-NaH2PO4), pH 7.5, 30 °C, BHET 0.8-15 mM
# purified protein [2] = substrate: O=C(OCCO)c1ccc(C(=O)OCCO)cc1; assay: purified protein; assay type: biochemical, Chryseobacterium sp. PET-29; conditions: 50 mM potassium phosphate (Na2HPO4-NaH2PO4), pH 7.5, 30 °C, BHET 0.8-15 mM
Protein,Km (purified protein [1]) [µM],kcat (purified protein [1]) [s⁻¹],kcat/Km (purified protein [1]) [M⁻¹ s⁻¹],Km (purified protein [2]) [µM],kcat (purified protein [2]) [s⁻¹],kcat/Km (purified protein [2]) [M⁻¹ s⁻¹]
"BsEst (Bacillus subtilis subsp. subtilis str. 168; DEL410-418/INS409GG) (protein, catalytic triad S189-E310-H399; L410-K418 barrier) MTHQIVTTQYGKVKGTTENGVHKWKGIPYAKPPVGQWRFKAPEPPEVWEDVLDATAYGSICPQPSDLLSLSYTELPRQSEDCLYVNVFAPDTPSKNLPVMVWIHGGAFYLGAGSEPLYDGSKLAAQGEVIVVTLNYRLGPFGFLHLSSFNEAYSDNLGLLDQAAALKWVRENISAFGGDPDNVTVFGESAGGMSIAALLAMPAAKGLFQKAIMESGASRTMTKEQAASTSAAFLQVLGINEGQLDKLHTVSAEDLLKAADQLRIAEKENIFQLFFQPALDPKTLPEEPEKAIAEGAASGIPLLIGTTRDEGYLFFTPDSDVHSQETLDAALEYLLGKPLAEKVADLYPRSLESQIHMMTDLLFWRPAVAYASAQSHYAPVWMYRFDWHPKKPPYNKAFHALELPFVFGNGGAEITDEVKQLSHTIQSAWITFAKTGNPSTEAVNWPAYHEETRETLILDSEITIENDPESEKRQKLFPSKGE",80 ± 30,102 ± 5.18,1.35e+06 ± 334000,–,–,–
"ChryBHETase (Chryseobacterium sp. PET-29; DEL66-76/INS65GG) (protein, catalytic triad S194-E310-H379; V66-K76 barrier) MTTQQHKKIHTFHTSFGTIPALKGNGVIRAKSIRYARSQRFKKPEPLPYPEHDEIPDKTPVCPQNGGTDVEQFEPDESPQFLTITRPEHFNENEKLPVIVWIHGGSYEIGCGDLPTSDPSVWVKEQHIIVVSVSYRLGLFGFLGGSEERPANLGLYDMIAALQWIKQYIRDFGGDPENITLFGQSSGGDAIAHLMISEETENLFRHVIIHSAPLGFRINRQKMSHEFFLKTDILKDEPDALKMVAGYRTFLPSFRKYGLKTSMPFCTQYGHPPLCQEEETMPNWKQNAKKYDVLIGSNQDETAFYVKTSQTGIYTYLPQRILNKIVRKTTASIYEKPAKAFAENLAAGGGNVYQFVIRSTLKSNNIGASHCVDLPLLFENKEAWQSAELLKDVPWEYIQENGKKLRALWAEFARSGSISEDSERPEILKLKKVKN",–,–,–,120 ± 30,12.9 ± 1.24,109000 ± 12900
"ChryBHETase (Chryseobacterium sp. PET-29) (protein, catalytic triad S194-E310-H379; V66-K76 barrier) MTTQQHKKIHTFHTSFGTIPALKGNGVIRAKSIRYARSQRFKKPEPLPYPEHDEIPDKTPVCPQNVSPLLDRLIQKTDVEQFEPDESPQFLTITRPEHFNENEKLPVIVWIHGGSYEIGCGDLPTSDPSVWVKEQHIIVVSVSYRLGLFGFLGGSEERPANLGLYDMIAALQWIKQYIRDFGGDPENITLFGQSSGGDAIAHLMISEETENLFRHVIIHSAPLGFRINRQKMSHEFFLKTDILKDEPDALKMVAGYRTFLPSFRKYGLKTSMPFCTQYGHPPLCQEEETMPNWKQNAKKYDVLIGSNQDETAFYVKTSQTGIYTYLPQRILNKIVRKTTASIYEKPAKAFAENLAAGGGNVYQFVIRSTLKSNNIGASHCVDLPLLFENKEAWQSAELLKDVPWEYIQENGKKLRALWAEFARSGSISEDSERPEILKLKKVKN",–,–,–,90 ± 20,6.85 ± 0.53,77400 ± 11000
"BsEst (Bacillus subtilis subsp. subtilis str. 168) (protein, catalytic triad S189-E310-H399; L410-K418 barrier) MTHQIVTTQYGKVKGTTENGVHKWKGIPYAKPPVGQWRFKAPEPPEVWEDVLDATAYGSICPQPSDLLSLSYTELPRQSEDCLYVNVFAPDTPSKNLPVMVWIHGGAFYLGAGSEPLYDGSKLAAQGEVIVVTLNYRLGPFGFLHLSSFNEAYSDNLGLLDQAAALKWVRENISAFGGDPDNVTVFGESAGGMSIAALLAMPAAKGLFQKAIMESGASRTMTKEQAASTSAAFLQVLGINEGQLDKLHTVSAEDLLKAADQLRIAEKENIFQLFFQPALDPKTLPEEPEKAIAEGAASGIPLLIGTTRDEGYLFFTPDSDVHSQETLDAALEYLLGKPLAEKVADLYPRSLESQIHMMTDLLFWRPAVAYASAQSHYAPVWMYRFDWHPKKPPYNKAFHALELPFVFGNLDGLERMAKAEITDEVKQLSHTIQSAWITFAKTGNPSTEAVNWPAYHEETRETLILDSEITIENDPESEKRQKLFPSKGE",100 ± 20,37.7 ± 1.98,382000 ± 84500,–,–,–
